{
  "source": "patent US20220098577",
  "key": {"[1]": {"target": "T1, T4 DNA ligase (Enterobacteria phage T4?) (UniProt P00970)", "T1 sequence": "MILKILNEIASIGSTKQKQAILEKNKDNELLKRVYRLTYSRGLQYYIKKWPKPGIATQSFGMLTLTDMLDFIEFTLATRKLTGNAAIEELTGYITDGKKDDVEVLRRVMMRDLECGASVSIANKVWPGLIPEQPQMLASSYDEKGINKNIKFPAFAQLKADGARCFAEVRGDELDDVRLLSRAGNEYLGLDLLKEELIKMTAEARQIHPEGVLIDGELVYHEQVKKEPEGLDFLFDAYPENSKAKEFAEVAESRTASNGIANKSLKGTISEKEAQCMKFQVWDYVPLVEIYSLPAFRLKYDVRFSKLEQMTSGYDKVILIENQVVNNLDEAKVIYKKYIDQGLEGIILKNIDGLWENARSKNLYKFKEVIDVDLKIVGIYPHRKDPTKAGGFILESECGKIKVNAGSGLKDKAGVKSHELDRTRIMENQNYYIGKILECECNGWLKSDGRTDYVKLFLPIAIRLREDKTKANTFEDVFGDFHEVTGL"}, "[2]": {"target": "T1, T4 DNA ligase (Enterobacteria phage T4?)", "settings": "5'-phosphate, 25 C"}, "SapI": {"target": "T2, SapI (UniProt O52712)", "T2 sequence": "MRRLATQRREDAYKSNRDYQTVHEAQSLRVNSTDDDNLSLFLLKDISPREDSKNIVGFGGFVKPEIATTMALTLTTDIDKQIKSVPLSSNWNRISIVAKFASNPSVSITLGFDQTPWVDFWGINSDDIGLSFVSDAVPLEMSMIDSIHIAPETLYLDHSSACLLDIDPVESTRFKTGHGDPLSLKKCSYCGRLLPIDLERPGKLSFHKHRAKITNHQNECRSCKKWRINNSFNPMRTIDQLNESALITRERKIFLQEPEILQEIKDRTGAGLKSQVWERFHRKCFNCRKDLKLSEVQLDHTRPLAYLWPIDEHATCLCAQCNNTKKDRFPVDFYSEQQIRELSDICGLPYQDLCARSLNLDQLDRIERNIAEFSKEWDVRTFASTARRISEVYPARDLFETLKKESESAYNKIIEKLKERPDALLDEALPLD", "assay": "cleavage_in_vitro", "settings": "SapI digestion giving 3-base overhang"}},
  "note": "Like-named read-outs stand apart in the source and are kept apart here.",
  "data": [
    {"substance": "GNN/TNN mismatch overhang substrate", "values": [
      {"measurement": "relative ligation rate (fold faster than TNN/GNN)", "setting": "[1]; ligation of edge G:T mismatch", "value": 80}
    ]},
    {"substance": "NNNCGAAGAGCTGCGATCCAGTGCGCCGTGCATTGATCAACGCAANNNNNNATCTCTCTCTTTTCCTCCTCCTCCGTTGTTGTTGTTGAGAGAGATNNNNNNTTGCGTTGATCAATGCACGGCGCACTGGATCGCAGCTCTTCG [AAA 3-base overhang substrate]", "values": [
      {"measurement": "binding signal", "setting": "[2]; correct ligations 1403.8 x10-5", "value": 99.2, "unit": "% fidelity"}
    ]},
    {"substance": "NNNCGAAGAGCTGCGATCCAGTGCGCCGTGCATTGATCAACGCAANNNNNNATCTCTCTCTTTTCCTCCTCCTCCGTTGTTGTTGTTGAGAGAGATNNNNNNTTGCGTTGATCAATGCACGGCGCACTGGATCGCAGCTCTTCG [GGC 3-base overhang substrate]", "values": [
      {"measurement": "binding signal", "setting": "[2]; correct ligations 864.7 x10-5", "value": 53.6, "unit": "% fidelity"}
    ]},
    {"substance": "NNNCGAAGAGCTGCGATCCAGTGCGCCGTGCATTGATCAACGCAANNNNNNATCTCTCTCTTTTCCTCCTCCTCCGTTGTTGTTGTTGAGAGAGATNNNNNNTTGCGTTGATCAATGCACGGCGCACTGGATCGCAGCTCTTCG [TAA 3-base overhang substrate]", "values": [
      {"measurement": "binding signal", "setting": "[2]; correct ligations only 209.0 x10-5", "value": 98.6, "unit": "% fidelity"}
    ]},
    {"substance": "TCAGGTNNNCGAAGAGCTGCGATCCAGTGCGCCGTGCATTGATCAACGCAANNNNNNATCTCTCTCTTTTCCTCCTCCTCCGTTGTTGTTGTTGAGAGAG [ligation library precursor (extended)]", "values": [
      {"measurement": "activity", "setting": "SapI", "value": "> 95", "unit": "% cut"}
    ]},
    {"substance": "TNN/GNN mismatch overhang substrate", "values": [
      {"measurement": "relative ligation rate (relative to GNN/TNN)", "setting": "[1]; stated as about 80-fold slower than 5'-G mismatch", "value": 0.0125}
    ]}
  ]
}
